The values below come from US20180016327A1 (Chugai, published 2018).

Changes are numbered by the printed parent chain.

For experiment [1], the target named is T1, human C5 (human, UniProt P01031 19-673; P01031 678-1676, Beta and alpha chains are disulfide-linked and the protein is glycosylated.).
T1 construct: Either in-house recombinant C5 or plasma derived C5 (CALBIOCHEM) was used; also called recombinant human C5; plasma derived human C5
The experiment can be described thus: Biacore, 37 degrees C; antibody captured, human C5 injected (concentration not given); association pH 7.4, dissociation pH 7.4 (circles) or pH 5.8 (triangles).

Experiment [2] deals with T1, human C5. Nature of the experiment: Biacore, captured antibody, pH 7.4, 37 C.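 Note: biacore binding response of anti-C5 antibody light chain variants captured on chip with human C5 injected, ACES running buffer containing 1.2 mM CaCl₂, parent light chain antibody set to 100.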
The target in experiment [3] is T2, cynomolgus monkey C5 (cynomolgus monkey, limits assumed).
T2 construct: also called recombinant cynomolgus monkey C5
T2 chain 1: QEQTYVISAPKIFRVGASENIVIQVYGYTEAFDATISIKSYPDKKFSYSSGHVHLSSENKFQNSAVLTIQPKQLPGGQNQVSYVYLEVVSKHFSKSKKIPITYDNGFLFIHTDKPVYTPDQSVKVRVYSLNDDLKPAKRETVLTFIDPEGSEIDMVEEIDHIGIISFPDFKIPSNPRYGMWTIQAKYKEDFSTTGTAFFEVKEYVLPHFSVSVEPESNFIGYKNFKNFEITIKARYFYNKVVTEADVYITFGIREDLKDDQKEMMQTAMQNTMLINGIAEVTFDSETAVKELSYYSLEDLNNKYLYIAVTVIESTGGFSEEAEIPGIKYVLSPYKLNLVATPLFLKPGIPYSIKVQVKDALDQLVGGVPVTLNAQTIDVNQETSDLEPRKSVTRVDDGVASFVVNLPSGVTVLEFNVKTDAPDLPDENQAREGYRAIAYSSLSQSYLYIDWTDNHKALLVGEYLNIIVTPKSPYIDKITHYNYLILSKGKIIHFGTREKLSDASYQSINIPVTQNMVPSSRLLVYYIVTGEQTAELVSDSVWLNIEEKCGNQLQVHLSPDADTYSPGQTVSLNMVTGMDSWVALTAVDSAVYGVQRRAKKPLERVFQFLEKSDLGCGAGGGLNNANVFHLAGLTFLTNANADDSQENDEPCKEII
T2 chain 2: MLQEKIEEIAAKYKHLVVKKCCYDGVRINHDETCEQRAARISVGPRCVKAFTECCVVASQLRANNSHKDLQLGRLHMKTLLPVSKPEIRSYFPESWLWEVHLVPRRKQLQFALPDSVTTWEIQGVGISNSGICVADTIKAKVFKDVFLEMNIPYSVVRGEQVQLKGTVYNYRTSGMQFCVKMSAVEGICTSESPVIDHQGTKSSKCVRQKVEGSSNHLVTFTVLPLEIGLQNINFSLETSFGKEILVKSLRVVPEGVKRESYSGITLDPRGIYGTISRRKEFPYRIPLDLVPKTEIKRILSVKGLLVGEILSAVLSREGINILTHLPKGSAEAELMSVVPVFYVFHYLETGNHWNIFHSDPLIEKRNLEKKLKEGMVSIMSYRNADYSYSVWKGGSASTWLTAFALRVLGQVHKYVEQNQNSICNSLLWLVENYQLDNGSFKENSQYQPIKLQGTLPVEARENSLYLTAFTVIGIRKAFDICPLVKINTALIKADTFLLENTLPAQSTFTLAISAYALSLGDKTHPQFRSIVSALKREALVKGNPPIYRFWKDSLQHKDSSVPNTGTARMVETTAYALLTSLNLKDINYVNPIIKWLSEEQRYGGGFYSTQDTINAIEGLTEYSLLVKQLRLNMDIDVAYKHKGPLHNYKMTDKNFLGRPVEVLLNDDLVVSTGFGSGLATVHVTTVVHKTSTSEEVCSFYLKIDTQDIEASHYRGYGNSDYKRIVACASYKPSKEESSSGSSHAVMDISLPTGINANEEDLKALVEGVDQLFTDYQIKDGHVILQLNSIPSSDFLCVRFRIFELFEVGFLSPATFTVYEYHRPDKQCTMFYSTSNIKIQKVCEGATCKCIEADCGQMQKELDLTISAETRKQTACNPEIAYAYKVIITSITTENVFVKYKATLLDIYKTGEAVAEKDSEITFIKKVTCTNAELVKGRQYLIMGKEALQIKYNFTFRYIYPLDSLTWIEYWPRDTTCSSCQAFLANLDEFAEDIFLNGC
The experiment can be described thus: Biacore T200, 37 C, kd from the dissociation phase only, association at pH 7.4 and dissociation at pH 5.8. A general note: SPR reads the build-up and loss of mass on a sensor chip optically.
Protocol: (§1) Anti-C5 antibodies were captured on an immobilized molecule, and then human C5 was injected. The running buffers used were ACES pH 7.4 and pH 5.8 (20 mM ACES, 150 mM NaCl, 1.2 mM CaCl₂, 0.05% Tween 20). Kinetics parameters at both pH conditions were determined by fitting the sensorgrams with 1:1 binding -RI (without bulk effect adjustment) model using Biacore T200 Evaluation software, version 2.0 (GE Healthcare).

The target of experiment [4] is T2, cynomolgus monkey C5. The experiment can be described thus: Biacore T200, 37 C, kd from the dissociation phase only, dissociation at pH 7.4.
Protocol: as §1
Experiment [5] deals with T1, human C5. Nature of the experiment: Biacore T200, captured antibody, recombinant human C5 injected, pH 7.4, 37 C, 1:1 fit.
Protocol: as §1
(§2) These variants were examined for the binding against human C5.
For experiment [6], the target named is T2, cynomolgus monkey C5. The experiment can be described thus: Biacore T200, captured antibody, cynomolgus monkey C5 injected, pH 7.4, 37 C, 1:1 fit.
Protocol: as §1
The target of experiment [7] is T1, human C5. Nature of the experiment: Biacore T200, 37 C, kd from the dissociation phase only, dissociation at pH 7.4.
Protocol: as §1, §2
Experiment [8] addresses T1, human C5. Nature of the experiment: Biacore T200, 37 C, kd from the dissociation phase only, association at pH 7.4 and dissociation at pH 5.8.
Protocol: as §1, §2

B1: antibody comprising heavy chain of clone 18 and light chain of 20L065 (antibody, V domains shown)
VH: QVQLVQSGAEVKKPGSSVKVSCKASGGTFSSYAISWVRQAPGQGLEWMGGIIPIFGTANYAQKFQGRVTITADESTSTAYMELSSLRSEDTAVYYCARQLYGYYELDIWGQGTLVTVSS
VL: DIQMTQSPSSLSASVGDRVTITCRASQSIHDDLAWYQQKPGKAPKLLIYEASNLQSGVPSRFSGSGSGTDFTLTISSLQPEDFATYYCQQYSSYPHTFGQGTKVEIK
notes: also called clone 18 with common light chain
In the case of B1, the binding result with human C5 [1] is given as “binds”.

B2: CFP0017 17L 31H (antibody, V domains shown)
VH: B1 VH with Q99G, L100G, Y101W, G102W, Y103G, Y104G, E105A, I108Y
VL: B1 VL with H30E, D31H, E50H, N53S, Y91S, S92D, H96L
Consider B2, for which the “% binding (parent = 100)” value with human C5 [2] was 3.4%.

B3: optimized 20//18 (bispecific antibody, V domains shown)
VH 1: QVQLQESGPGLVKPSETLSLTCAVSGYSISSGYYWGWIRQPPGKGLEWIGSIYHSGSTYYNKKLKSRVTISVDTSKNQFSLKLSSVTAADTAVYYCARHDPTWYHHGYFDYWGQGTLVTVSS
VH 2: B1 VH with A33S
VL: B1 VL with D31N, N53E, Q90H, H96Y
notes: Bispecific IgG with the common light chain 20L233
What is called koff is the first-order rate constant of dissociation. As a reminder, the Kd is the constant that tells how readily two partners part at equilibrium. As a reminder, the kon is the second-order rate constant of association. B3: the koff in the experiment with cynomolgus monkey C5 [3] was found to be 0.107 s⁻¹; with cynomolgus monkey C5 [4], 0.000224 s⁻¹; with human C5 [5], 9.72e-05 s⁻¹; in the experiment with cynomolgus monkey C5 [6] it was 0.000236 s⁻¹; with human C5 [7], 0.000104 s⁻¹; with human C5 [8], 0.0594 s⁻¹. Besides, the dissociation constant Kd in the experiment with human C5 [5] turned out to be 0.268 nM; in the experiment with cynomolgus monkey C5 [6], 0.664 nM. Also, the kon worked out at 362000 M⁻¹ s⁻¹ in the experiment with human C5 [5] and 355000 M⁻¹ s⁻¹ with cynomolgus monkey C5 [6].
